This note sets out measurements from publication doi:10.1101/2022.09.09.507385 (bioRxiv, 2022).

What is called stoichiometry N is the number of molecules, sites or subunits per partner or assembly.

This data set concerns the molecule itself. As to the kind of experiment: cryo-EM structure.

B1: human Pannexin1 wild type (PANX1WT), full length (natural protein)
chain: MAIAQLATEYVFSDFLLKEPTEPKFKGLRLELAVDKMVTCIAVGLPLLLISLAFAQEISIGTQISCFSPSSFSWRQAAFVDSYCWAAVQQKNSLQSESGNLPLWLHKFFPYILLLFAILLYLPPLFWRFAAAPHICSDLKFIMEELDKVYNRAIKAAKSARDLDMRDGACSVPGVTENLGQSLWEVSESHFKYPIVEQYLKTKKNSNNLIIKYISCRLLTLIIILLACIYLGYYFSLSSLSDEFVCSIKSGILRNDSTVPDQFQCKLIAVGIFQLLSVINLVVYVLLAPVVVYTLFVPFRQKTDVLKVYEILPTFDVLHFKSEGYNDLSLYNLFLEENISEVKSYKCLKVLENIKSSGQGIDPMLLLTNLGMIKMDVVDGKTPMSAEMREEQGNQTAELQGMNIDSETKANNGEKNARQRLLDSSC
B1: the binding result is “binds”.

B2: human Pannexin1 double mutant W74R/R75D (PANX1DM) (natural protein)
chain: MAIAQLATEYVFSDFLLKEPTEPKFKGLRLELAVDKMVTCIAVGLPLLLISLAFAQEISIGTQISCFSPSSFSRDQAAFVDSYCWAAVQQKNSLQSESGNLPLWLHKFFPYILLLFAILLYLPPLFWRFAAAPHICSDLKFIMEELDKVYNRAIKAAKSARDLDMRDGACSVPGVTENLGQSLWEVSESHFKYPIVEQYLKTKKNSNNLIIKYISCRLLTLIIILLACIYLGYYFSLSSLSDEFVCSIKSGILRNDSTVPDQFQCKLIAVGIFQLLSVINLVVYVLLAPVVVYTLFVPFRQKTDVLKVYEILPTFDVLHFKSEGYNDLSLYNLFLEENISEVKSYKCLKVLENIKSSGQGIDPMLLLTNLGMIKMDVVDGKTPMSAEMREEQGNQTAELQGMNIDSETKANNGEKNARQRLLDSSC
For B2, the binding result is “binds”.

B3: human Pannexin1 congenital mutant R217H (PANX1_(R217H)) (natural protein)
chain: MAIAQLATEYVFSDFLLKEPTEPKFKGLRLELAVDKMVTCIAVGLPLLLISLAFAQEISIGTQISCFSPSSFSWRQAAFVDSYCWAAVQQKNSLQSESGNLPLWLHKFFPYILLLFAILLYLPPLFWRFAAAPHICSDLKFIMEELDKVYNRAIKAAKSARDLDMRDGACSVPGVTENLGQSLWEVSESHFKYPIVEQYLKTKKNSNNLIIKYISCHLLTLIIILLACIYLGYYFSLSSLSDEFVCSIKSGILRNDSTVPDQFQCKLIAVGIFQLLSVINLVVYVLLAPVVVYTLFVPFRQKTDVLKVYEILPTFDVLHFKSEGYNDLSLYNLFLEENISEVKSYKCLKVLENIKSSGQGIDPMLLLTNLGMIKMDVVDGKTPMSAEMREEQGNQTAELQGMNIDSETKANNGEKNARQRLLDSSC
On to B3, for which the binding result is recorded as “binds”.

B4: human Pannexin3 (PANX3), full length (natural protein)
chain: MSLAHTAAEYMLSDALLPDRRGPRLKGLRLELPLDRIVKFVAVGSPLLLMSLAFAQEFSSGSPISCFSPSNFSIRQAAYVDSSCWDSLLHHKQDGPGQDKMKSLWPHKALPYSLLALALLMYLPVLLWQYAAVPALSSDLLFIISELDKSYNRSIRLVQHMLKIRQKSSDPYVFWNELEKARKERYFEFPLLERYLACKQRSHSLVATYLLRNSLLLIFTSATYLYLGHFHLDVFFQEEFSCSIKTGLLSDETHVPNLITCRLTSLSIFQIVSLSSVAIYTILVPVIIYNLTRLCRWDKRLLSVYEMLPAFDLLSRKMLGCPINDLNVILLFLRANISELISFSWLSVLCVLKDTTTQKHNIDTVVDFMTLLAGLEPSKPKHLTNSACDEHP
modifications: N-acetylglucosamine (NAG) at N71; disulfide bonds C66-C261 and C84-C242
For B4, the “stoichiometry N” value amounted to 7.
